This test deals with T1, VEGFR-3 expressed in primary human osteoblasts (human, UniProt P35916 25-1363).
T1 construct: whole, on cells; Endogenous receptor of the cells; also called vascular endothelial growth factor receptor-3
The experiment in a line: receptor auto-phosphorylation in primary human osteoblasts treated with 25 ng/ml VEGF-D. Here is the method: Moreover osteoblasts were treated with VEGF-D and the whole cell lisates were immunoprecipitated with an antibody recognizing VEGFR-3 C-terminus (Santa Cruz Biotechnology) and immunoblotted with anti-phosphotyrosine antibodies (Santa Cruz Biotechnology).
Cells were stimulated for 30 min with 25 ng/ml VEGF-D at 37° C., washed with ice-cold PBS containing 0.1 mM Na₃VO₄, and lysed in 1 ml of lysis buffer (50 mM Hepes, pH 7.4, 150 mM NaCl, 1% Triton-X 100, 1.5 mM MgCl₂, 1 mM EGTA, 10 mM NaH₂PO₄, 100 mM NaF, 10 mM DTT, 1 mM Na₃VO₄, protease inhibitors, Sigma Chemical). Cells lysates were incubated on ice for 10 min, centrifuged at 10,000×g for 15 min, and the supernatants were incubated with anti-VEGFR-3 antibodies.

T1 sequence (P35916 25-1363): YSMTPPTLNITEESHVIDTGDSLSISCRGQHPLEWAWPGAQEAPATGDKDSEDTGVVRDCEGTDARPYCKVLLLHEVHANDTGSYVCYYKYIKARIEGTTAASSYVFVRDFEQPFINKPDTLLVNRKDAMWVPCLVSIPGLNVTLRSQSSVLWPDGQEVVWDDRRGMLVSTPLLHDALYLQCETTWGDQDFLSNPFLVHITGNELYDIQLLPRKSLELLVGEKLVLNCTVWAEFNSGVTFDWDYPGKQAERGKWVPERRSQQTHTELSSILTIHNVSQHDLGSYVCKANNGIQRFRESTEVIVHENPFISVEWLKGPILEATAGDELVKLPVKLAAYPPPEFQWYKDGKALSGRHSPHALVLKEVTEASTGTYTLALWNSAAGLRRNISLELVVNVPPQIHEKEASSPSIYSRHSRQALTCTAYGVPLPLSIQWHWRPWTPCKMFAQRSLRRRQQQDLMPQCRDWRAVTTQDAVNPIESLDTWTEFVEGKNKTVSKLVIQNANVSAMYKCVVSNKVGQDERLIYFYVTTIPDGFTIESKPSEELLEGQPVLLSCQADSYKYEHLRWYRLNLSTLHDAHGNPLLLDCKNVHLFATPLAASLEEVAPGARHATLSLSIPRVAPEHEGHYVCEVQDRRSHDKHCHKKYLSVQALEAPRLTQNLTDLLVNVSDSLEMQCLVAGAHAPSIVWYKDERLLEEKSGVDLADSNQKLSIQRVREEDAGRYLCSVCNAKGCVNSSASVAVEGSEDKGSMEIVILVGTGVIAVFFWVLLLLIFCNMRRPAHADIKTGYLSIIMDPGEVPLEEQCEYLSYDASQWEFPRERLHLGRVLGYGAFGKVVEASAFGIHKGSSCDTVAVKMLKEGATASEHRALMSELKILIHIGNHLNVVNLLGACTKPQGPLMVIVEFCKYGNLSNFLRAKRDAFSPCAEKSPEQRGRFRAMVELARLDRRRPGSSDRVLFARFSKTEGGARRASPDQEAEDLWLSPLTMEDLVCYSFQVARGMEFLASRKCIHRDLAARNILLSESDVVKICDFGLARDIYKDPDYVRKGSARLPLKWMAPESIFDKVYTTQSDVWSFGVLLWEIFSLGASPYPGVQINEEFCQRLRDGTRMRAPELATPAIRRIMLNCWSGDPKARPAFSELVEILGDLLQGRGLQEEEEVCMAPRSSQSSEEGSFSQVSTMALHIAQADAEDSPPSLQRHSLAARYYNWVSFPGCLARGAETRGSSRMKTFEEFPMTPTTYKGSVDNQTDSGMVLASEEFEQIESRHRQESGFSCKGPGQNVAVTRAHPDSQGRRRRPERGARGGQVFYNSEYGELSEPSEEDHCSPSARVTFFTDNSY

B1: recombinant human VEGF-D fragment (amino acids 90 to 203), non covalent dimer, expressed in E. coli (ligand, UniProt O43915 90-203, looked up)
chain: AATFYDIETLKVIDEEWQRTQCSPRETCVEVASELGKSTNTFFKPPCVNVFRCGGCCNEESLICMNTSTSYISKQLFEISVPLTSVPELVPVKVANHTGCKCLPTAPRHPYSII
notes: range 90-203; this protein was used for the osteoblast experiments; also called recombinant VEGF-D; VEGF-D fragment comprising aa 93-203; not shown: tag from vector pET-22b used for Ni2+ IMAC / His-TRAP purification
B1: the binding result is listed as “binds”.

Values taken from US20090214495A1 (published 2009).
